Assay results: the nanobody polyreactivity screen of Harvey et al. (2022)

Test: yeast display, Sf9 membrane polyspecificity reagent, FACS + sequencing; frameworks hold sequencing errors
How it was run: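 Galactose induction of a Saccharomyces cerevisiae BJ5465 synthetic nanobody display library ran 36–48 hours. The cells were then stained for 1 hour at 4 °C with 10% biotinylated, detergent-solubilized Sf9 membrane reagent, pulled down on streptavidin microbeads and FACS-sorted into low and high (top ~1%) gates on expression and reagent-binding fluorescence. Labels for polyreactivity follow the gate of origin.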

| Sequence | polyreactivity (PSR sort gate) |
| --- | --- |
| QVQLQESGGGLVQAGGSLRLRCAASRNNSGSSDLGWYHQAPGKEREFVASITSGGTTYYADSVKGRFTISRDNAKNTVYLQMNSLKPEDTAVYYCAVGDPADAEFGYWGQGTQVTVSS | low polyreactivity |
| QVQLVESGGGLVQAGGSLRLSCAASGSIFAPYAMGLYRQAPGKERELVAAIRSSGGSTHYADSVKGRFTISRDNAKNTVYLQMNSLKPEDTAVYYCARSYGWYRWAGYDYWGQGTQVTVSS | high polyreactivity |
| QVQLVESGGGLVQAGGSLRLSCAASGRIFTKNTKGWYRQAPGKERELVAAIRSRAGSTYYADSVKGRFTISRDNAKNTVYLQMNSLKPEDTAVYYCAVPWFRSVDFDYWGQGTQVTVSS | low polyreactivity |
| QVQLVESGGGLVQAGCSLRLSCAASGRIFSRNAMGWYRQAPGKERELVAVITKRGGSTYYADSVKGRFTISRDKAKNTVYLQMNSLKPEDTAVYYCNAVPRRGIAFNHWGQGTHVTVSS | high polyreactivity |
| QVQLVESGGGLVQAGGSLRLSCAASGSTFYTNAKGWYRQAPGKEREFVAAISWAGSSTYADSVKGRFTISRDNAKTTVYLQMHSLKPEDTAVYYCNADVLDGGYDYWGQGTQVTVSS | low polyreactivity |
| QVQLVESGGGLVQAGGSLRLTCAASGRIFITNAMGWYSQAPGKEREMVAVISYIGGRTYYADSVKGRFTISRDNAKNTVYLQMNSLKPEDTAVYYCAARRSRPTYYSTGVNYWGQGTQVTVSS | high polyreactivity |
| QVQRVESGGGLVQAGGSLRLSCAASGNIFVYYAMGWYRQAPGKERELVAAISSDVSTYYADSVKGRFTISRDNAKNTVYLQMNSLKPEDTAVYYCATTGYGSYVIYWGQGTQVTVSS | low polyreactivity |
| QVQLVESGGGLVQAGGSLRLSCAASGRTFGLNAMGWYRQAPGKERELVAAITSGGSTYYADSVKGRFTITRDNAKTTVYLQMNSLKPEDTAVYYCAAAYFDFWGWLHDYWGQGTQVTVSS | low polyreactivity |
| QVQLEESGGGLDQAGGSLRLSCAASGIIFGYYAMGWYIQAPGKQSEFVAAINYSGVSTYYADSVKGRFTISLDNAKNTVYLEMHSLKPEDTAVYYCAAGPYAGVDPGYYYYWGKGTQVTVSS | low polyreactivity |
| QVQLVEAGGGLVQAGGRLRLSCAASGSIFRRNAMGWYRQAPGTERELVASISSSGGSTYYADSVKGRFTLSRDNAMNTVYLQMNSLKPEDTAVYYCNAYRIRPGTPYGNGYYYWGQGTQVTGSS | high polyreactivity |
| QVQLVESGGGLVQAGGSLRLSCAASGRIFSKYAMGWNRQAPGKERELVAAITSSTKYADSVKGRFTISRDNAKNTVYLQMNSLKPEDTAVYYCNAEFGWHTYYGADFKMDYWGQGTQVTVSS | high polyreactivity |
| QVQLVESGAGLVKAGGSLRLSCAASGRSFRGNVMGWYRQAPGKEREFVAAISSSGGSTYYADSVKGRFTISRDNAKNTVYLQMNSLKPEDTAVYYCAAGGWPYSGGWFFQPNYDYWGQGTQVTVSS | low polyreactivity |
| QVQLVESGGGLVKAGSSLRLSCAASGSIFLYNAMGWYRQAPGKERELVAVINGRGGTYYADSVKGRFTISRDNAKNTVYLQMNSLKPEDNSVYYCATGYPPSAWYDSVRFEDRDSWGQCTQVTVSS | low polyreactivity |
| QVQLVESGGGLVQAGGSLRLSCAASGSIFEPNAMGWYRQAPGKVRELVAAITSGGTTYADSVKGRFTISRDNAKNTVYLQMNSLKPEETAVYYCAADYSFVYYYPFDYWGQGTQVTVSS | low polyreactivity |
| QVQLVESGGGLVQAGGSLRLSCAASGRTFYKYAMGWYRQAPGKERELVAAITSGGGRTYYADSVKGRFTISRDNAKNTVYLQMNSLIPEDTAVYYCNAVLPLAKYEYDSWGQGTQVTVSS | high polyreactivity |
| QVQLVESGGGLVQAGGSLRLSCAASGRTFLYYVMGWYRQAPGKERELVAAITNRGGSTYYADSVKGRFTISRDNAKNTVYLQLNSLKPEDTAVYYCNAPYGVYWSSTYYYWGQGTQVTVSS | high polyreactivity |
